From US20070192906A1

Molecular target: rice storage protein glutelin B1 (rice) (UniProt P14323)

## pepsin (enzyme)
  degradation by pepsin treatment (Western blot): 90 % degraded
